Experimental data taken from the Human Domainome abundance scans (Beltran et al. 2025).
± gives the uncertainty stated by the source.

B1: TOX high mobility group box family member 3, residues 256 to 323; numbered along this chain, O15405 (parent)
chain: QKPVSAYALFFRDTQAAIKGQNPNATFGEVSKIVASMWDSLGEEQKQVYKRKTEAAKKEYLKALAAYR

Variants of: B1
Assay: abundance fitness (aPCA) (normalised: wild type 0, dead -1); higher = more abundant; growth selection in yeast, the domain comes from the species named
Conditions: Homo sapiens

Abundance fitness of substitutions, site by site:
D39: R -0.016 ± 0.05, F -0.167 ± 0.07, P -0.829 ± 0.11, V -0.262 ± 0.071, M -0.191 ± 0.08, W -0.211 ± 0.074, Y -0.231 ± 0.085, S 0.021 ± 0.045, Q 0.003 ± 0.088, G -0.21 ± 0.065, C -0.055 ± 0.43, A -0.026 ± 0.064, T -0.292 ± 0.092, H -0.065 ± 0.09, E 0.022 ± 0.084, N -0.217 ± 0.21, L -0.224 ± 0.042
K46: S -0.811 ± 0.12, G -0.8 ± 0.075, W -0.988 ± 0.24, P -0.978 ± 0.19, I -0.398 ± 0.1, L -0.537 ± 0.058, F -0.913 ± 0.19, D -0.678 ± 0.13, C -0.714 ± 0.18, E -1.05 ± 0.19, V -0.437 ± 0.054, T -0.395 ± 0.11, Q -0.08 ± 0.083, H -0.836 ± 0.24, M -0.356 ± 0.086, Y -0.529 ± 0.17
E44: A -0.116 ± 0.051, T -0.072 ± 0.076, K 0.066 ± 0.099, Y -0.955 ± 0.25, L -0.556 ± 0.062, N -0.11 ± 0.13, F -0.541 ± 0.061, D 0.069 ± 0.067, V -0.209 ± 0.046, W -0.515 ± 0.073, R -0.359 ± 0.07, C 0.023 ± 0.18, I -0.613 ± 0.19, S -0.101 ± 0.05, M -0.493 ± 0.096, G -0.17 ± 0.06
L41: Y -0.902 ± 0.23, Q -0.718 ± 0.2, V -0.29 ± 0.086, G -0.474 ± 0.07, N -1.16 ± 0.46, C -0.592 ± 0.11, P -0.724 ± 0.2, H -0.766 ± 0.19, M 0.09 ± 0.079, E -0.922 ± 0.16, A -0.225 ± 0.068, I -0.187 ± 0.15, D -0.847 ± 0.34, T -0.298 ± 0.13, K -0.931 ± 0.14, W -1.05 ± 0.14, F -0.507 ± 0.15
M37: R 0.013 ± 0.042, W -0.874 ± 0.12, T -0.036 ± 0.075, V -0.317 ± 0.064, Y -0.826 ± 0.32, S -0.265 ± 0.056
Q47: L -0.211 ± 0.061, M -0.11 ± 0.089, A -0.101 ± 0.075, E -0.052 ± 0.1, H -0.232 ± 0.1, I -0.498 ± 0.49, D 0.033 ± 0.12, K -0.048 ± 0.087, G -0.103 ± 0.05, C -0.195 ± 0.061, F -0.445 ± 0.14
E43: R -0.274 ± 0.075, V -0.12 ± 0.059, T -0.022 ± 0.06, Y 0.076 ± 0.11, A -0.085 ± 0.054, N -0.374 ± 0.17, W -0.359 ± 0.07, M -0.255 ± 0.12, C -0.165 ± 0.1, H -0.27 ± 0.13, S -0.118 ± 0.051, Q -0.002 ± 0.07, F -0.237 ± 0.079, K -0.218 ± 0.1, D -0.151 ± 0.12, I -0.339 ± 0.18, P 0.058 ± 0.056, G -0.43 ± 0.099
Q45: N -0.232 ± 0.16, G -0.17 ± 0.055, R -0.059 ± 0.045, K 0.037 ± 0.088, F -0.339 ± 0.091, E 0.092 ± 0.13, W -0.642 ± 0.095, I -0.479 ± 0.1, C -0.486 ± 0.087, S -0.129 ± 0.061, H 0.098 ± 0.14, M -0.431 ± 0.098, V -0.278 ± 0.079, T -0.114 ± 0.098, D 0.132 ± 0.16, P -0.546 ± 0.066, L -0.433 ± 0.06, Y -0.373 ± 0.23, A -0.154 ± 0.075
G42: R -0.275 ± 0.052, N 0.108 ± 0.079, H -0.075 ± 0.11, C 0.04 ± 0.085, V -0.59 ± 0.079, Q -0.153 ± 0.09, A -0.088 ± 0.052, W -0.858 ± 0.14, S 0.086 ± 0.048, K -0.037 ± 0.077, M -0.613 ± 0.068, Y -0.525 ± 0.15, D 0.067 ± 0.085, F -1.05 ± 0.32
S40: P -1.01 ± 0.16, C -0.338 ± 0.15, M -0.164 ± 0.078, Q 0.003 ± 0.069, L -0.258 ± 0.055, G 0.009 ± 0.052, N 0.005 ± 0.1, Y -0.295 ± 0.094, R -0.004 ± 0.05, W -0.838 ± 0.15, V -0.167 ± 0.058, A 0.005 ± 0.062, I 0.435 ± 0.11, E 0.01 ± 0.042, H -0.092 ± 0.12, D -0.223 ± 0.11, T 0.099 ± 0.061
W38: M -0.416 ± 0.098, F -0.716 ± 0.2, T -1.28 ± 0.37, K -0.799 ± 0.16, R -0.918 ± 0.12, C -0.743 ± 0.11, I -1.2 ± 0.42, G -0.855 ± 0.12, V -1.07 ± 0.14, P -1.03 ± 0.22, H -0.727 ± 0.45, Y -0.206 ± 0.14, S -0.863 ± 0.098, N -0.843 ± 0.26, D -0.789 ± 0.21, E -0.653 ± 0.12
